Experimental data from patent US20150119341A1.
[ ]: non-standard residue; d: D form. Nle = CCCC[C@H](N)C(=O)O; Orn = NCCC[C@H](N)C(=O)O; Dab = NCC[C@H](N)C(=O)O; Sar = CNCC(=O)O

B1: Ac-Nle-Ala-Orn-D-Phe-Arg-Ala-Trp-NH2 (peptide)
peptide: Ac-[Nle]A[Orn][dF]RAW-NH2
SMILES: CCCC[C@H](NC(C)=O)C(=O)N[C@@H](C)C(=O)N[C@@H](CCCN)C(=O)N[C@H](Cc1ccccc1)C(=O)N[C@@H](CCCNC(=N)N)C(=O)N[C@@H](C)C(=O)N[C@@H](Cc1c[nH]c2ccccc12)C(N)=O
B2: Ac-Nle-Ala-His-D-Phe-Arg-D-Pro-Trp-NH2 (peptide)
peptide: Ac-[Nle]AH[dF]R[dP]W-NH2
SMILES: CCCC[C@H](NC(C)=O)C(=O)N[C@@H](C)C(=O)N[C@@H](Cc1c[nH]cn1)C(=O)N[C@H](Cc1ccccc1)C(=O)N[C@@H](CCCNC(=N)N)C(=O)N1CCC[C@@H]1C(=O)N[C@@H](Cc1c[nH]c2ccccc12)C(N)=O
B3: Ac-Nle-Ala-His-D-Phe-Arg-Sar-Trp-NH2 (peptide)
peptide: Ac-[Nle]AH[dF]R[Sar]W-NH2
SMILES: CCCC[C@H](NC(C)=O)C(=O)N[C@@H](C)C(=O)N[C@@H](Cc1c[nH]cn1)C(=O)N[C@H](Cc1ccccc1)C(=O)N[C@@H](CCCNC(=N)N)C(=O)N(C)CC(=O)N[C@@H](Cc1c[nH]c2ccccc12)C(N)=O
B4: Ac-Nle-Ala-His-D-Phe-Arg-Ala-D-Trp-NH2 (peptide)
peptide: Ac-[Nle]AH[dF]RA[dW]-NH2
SMILES: CCCC[C@H](NC(C)=O)C(=O)N[C@@H](C)C(=O)N[C@@H](Cc1c[nH]cn1)C(=O)N[C@H](Cc1ccccc1)C(=O)N[C@@H](CCCNC(=N)N)C(=O)N[C@@H](C)C(=O)N[C@H](Cc1c[nH]c2ccccc12)C(N)=O
B5: Ac-Nle-Ala-His-D-Phe-Arg-Pro-D-Trp-NH2 (peptide)
peptide: Ac-[Nle]AH[dF]RP[dW]-NH2
SMILES: CCCC[C@H](NC(C)=O)C(=O)N[C@@H](C)C(=O)N[C@@H](Cc1c[nH]cn1)C(=O)N[C@H](Cc1ccccc1)C(=O)N[C@@H](CCCNC(=N)N)C(=O)N1CCC[C@H]1C(=O)N[C@H](Cc1c[nH]c2ccccc12)C(N)=O
B6: Ac-Nle-Ala-Dab-D-Phe-Arg-Ala-Trp-NH2 (peptide)
peptide: Ac-[Nle]A[Dab][dF]RAW-NH2
SMILES: CCCC[C@H](NC(C)=O)C(=O)N[C@@H](C)C(=O)N[C@@H](CCN)C(=O)N[C@H](Cc1ccccc1)C(=O)N[C@@H](CCCNC(=N)N)C(=O)N[C@@H](C)C(=O)N[C@@H](Cc1c[nH]c2ccccc12)C(N)=O

Molecular target: recombinant human melanocortin-1 receptor (hMCR-1a) in membrane homogenates of HEK-293 cells (human) (UniProt Q01726)
Sequence (Q01726 whole entry): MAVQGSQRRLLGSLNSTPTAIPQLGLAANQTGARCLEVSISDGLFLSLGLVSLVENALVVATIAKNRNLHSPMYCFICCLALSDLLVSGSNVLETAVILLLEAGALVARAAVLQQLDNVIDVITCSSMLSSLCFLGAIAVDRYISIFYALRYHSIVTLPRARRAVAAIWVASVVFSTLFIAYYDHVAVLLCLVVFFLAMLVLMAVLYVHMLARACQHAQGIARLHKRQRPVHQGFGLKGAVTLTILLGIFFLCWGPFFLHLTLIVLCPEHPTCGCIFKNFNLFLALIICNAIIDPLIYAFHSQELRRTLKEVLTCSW
Experiment: competitive inhibition of [I125]-NDP-alpha-MSH, hMCR-1 HEK-293 membranes

Ki [nM]	Binder
0.3	B1
14	B2
2	B3
7	B4
2	B5
2	B6

Molecular target: recombinant human melanocortin-4 receptor (hMCR-4) in membrane homogenates of HEK-293 cells (human) (UniProt P32245)
Sequence (P32245 whole entry): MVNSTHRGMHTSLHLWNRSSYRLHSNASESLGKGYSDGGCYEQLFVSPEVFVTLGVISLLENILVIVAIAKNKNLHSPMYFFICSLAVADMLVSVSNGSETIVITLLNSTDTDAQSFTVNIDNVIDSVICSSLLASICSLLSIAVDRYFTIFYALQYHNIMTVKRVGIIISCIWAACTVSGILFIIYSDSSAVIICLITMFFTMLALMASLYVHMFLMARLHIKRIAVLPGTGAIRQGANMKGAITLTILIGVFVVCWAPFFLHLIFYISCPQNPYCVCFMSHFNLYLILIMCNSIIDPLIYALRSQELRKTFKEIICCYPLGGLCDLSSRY
Experiment: competitive inhibition of [I125]-NDP-alpha-MSH, hMCR-4 HEK-293 membranes

Ki [nM]	Binder
7580	B1
6200	B2
870	B3
215	B4
650	B5
7850	B6
